Experiment [1] concerns the target T1, recombinant human LAMP2 with a C-terminal 10 His-tag (human, UniProt P13473 29-375).
T1 construct: bought; also called soluble LAMP2 protein (R&D Systems 6228-LM)
The experiment in a line: ELISA on coated soluble human LAMP2.

Experiment [2] deals with T1, recombinant human LAMP2 with a …. The experiment can be described thus: ELISA with soluble LAMP1 or LAMP2.
In experiment [3] the target is T2, human LAMP1 at the cell surface (human, UniProt P11279 29-417).
T2 construct: native on tumour cells (PDX, Colo205, SW480, LS174T) or from the cloned CDS NM_005561.3 in HEK293 and HCT116; signal peptide 1-28 left out; also called huLAMP1; full length human LAMP1
T2 sequence: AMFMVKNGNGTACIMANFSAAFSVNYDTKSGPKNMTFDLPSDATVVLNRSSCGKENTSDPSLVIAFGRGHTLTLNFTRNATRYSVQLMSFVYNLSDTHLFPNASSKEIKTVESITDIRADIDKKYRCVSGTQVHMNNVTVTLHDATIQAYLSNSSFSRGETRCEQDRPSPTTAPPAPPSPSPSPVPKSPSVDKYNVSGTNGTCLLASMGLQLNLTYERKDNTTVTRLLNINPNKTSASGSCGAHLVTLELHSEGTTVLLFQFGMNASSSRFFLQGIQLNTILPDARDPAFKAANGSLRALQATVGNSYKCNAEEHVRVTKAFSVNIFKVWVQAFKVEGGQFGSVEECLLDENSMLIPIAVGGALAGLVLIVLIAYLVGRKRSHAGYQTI
The experiment can be described thus: flow cytometry, dissociated CR-IGR-034P colon PDX cells. As to the method:
Advanced human primary colon tumor CR-IGR-034P was obtained from Patient-derived xenograft in mice. Tumor CR-IGR-034P was enzymatically dissociated using collagenase Type IV (Invitrogen; #17104-019) and deoxyribonuclease I (Invitrogen; #18047-019) for 1 h at 4° C. Cell viability was estimated by Viacount application using Guava® easyCyte™ 8HT Flow Cytometry System. […] 100 μL/well of goat anti-mouse IgG conjugated with Alexa647 (Invitrogen; # A2135) or goat anti-human IgG conjugated with Alexa488 (Invitrogen; # A11013) was added for 45 min at 4° C. and washed three times with PBS 1% BSA. The antibody binding was evaluated after centrifugation and resuspension of cells by adding 200 μl/well PBS 1% BSA and read using Guava® easyCyte™ 8HT Flow Cytometry System. EC50 values were estimated using BIOST@T-SPEED software.

The target in experiment [4] is T3, cLAMP1::histag (cynomolgus monkey, UniProt P11279 29-380 (human entry)).
T3 construct: extracellular domain with C-terminal tag that includes 6 His; also called cynomolgus LAMP1 (27-380); cynomolgus monkey LAMP1 protein
T3 chain: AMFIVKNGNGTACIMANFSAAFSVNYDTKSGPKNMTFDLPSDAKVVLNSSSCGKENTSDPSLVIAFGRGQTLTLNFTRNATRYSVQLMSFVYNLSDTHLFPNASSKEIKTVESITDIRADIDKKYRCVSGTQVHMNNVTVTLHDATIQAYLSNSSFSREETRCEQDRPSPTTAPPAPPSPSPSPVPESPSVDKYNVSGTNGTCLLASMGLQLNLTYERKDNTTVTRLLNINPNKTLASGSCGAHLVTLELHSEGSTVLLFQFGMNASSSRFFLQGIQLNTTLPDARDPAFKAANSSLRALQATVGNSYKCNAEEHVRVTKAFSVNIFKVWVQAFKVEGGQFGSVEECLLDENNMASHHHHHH
The experiment can be described thus: ELISA on recombinant cynomolgus LAMP1.

The target in experiment [5] is T4, LAMP1::histag (human, UniProt P11279 29-382).
T4 construct: extracellular domain without signal peptide, C-terminal 6 His tag, made in HEK293 cells; also called recombinant human LAMP1; human LAMP1 (29-382)
T4 sequence: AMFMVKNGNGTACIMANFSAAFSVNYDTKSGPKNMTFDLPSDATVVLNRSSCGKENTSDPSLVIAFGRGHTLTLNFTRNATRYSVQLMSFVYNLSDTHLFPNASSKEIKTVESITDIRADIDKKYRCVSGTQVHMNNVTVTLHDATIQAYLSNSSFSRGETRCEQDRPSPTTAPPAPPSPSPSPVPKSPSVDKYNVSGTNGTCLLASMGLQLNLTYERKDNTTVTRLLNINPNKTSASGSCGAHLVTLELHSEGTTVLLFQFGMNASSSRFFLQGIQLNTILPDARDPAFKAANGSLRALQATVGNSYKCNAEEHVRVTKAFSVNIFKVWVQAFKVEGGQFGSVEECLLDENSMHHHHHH
The experiment in a line: ELISA on recombinant human LAMP1.

For experiment [6], the target named is T3, cLAMP1::histag. The experiment can be described thus: ELISA.
Experiment [7] has as its target T4, LAMP1::histag. The experiment in a line: ELISA.
For experiment [8], the target named is T2, human LAMP1 at the cell surface. The experiment can be described thus: cell-based or functional assay.
In experiment [9] the target is T5, LAMP1_mL1_hL2_mL34_ΔGYQTI (mouse; human, UniProt P11438 25-369).
T5 construct: on cells; also called pXL5988; not shown: transmembrane domain and cytoplasmic tail with GYQTI replaced by 5 Ala
T5 chain: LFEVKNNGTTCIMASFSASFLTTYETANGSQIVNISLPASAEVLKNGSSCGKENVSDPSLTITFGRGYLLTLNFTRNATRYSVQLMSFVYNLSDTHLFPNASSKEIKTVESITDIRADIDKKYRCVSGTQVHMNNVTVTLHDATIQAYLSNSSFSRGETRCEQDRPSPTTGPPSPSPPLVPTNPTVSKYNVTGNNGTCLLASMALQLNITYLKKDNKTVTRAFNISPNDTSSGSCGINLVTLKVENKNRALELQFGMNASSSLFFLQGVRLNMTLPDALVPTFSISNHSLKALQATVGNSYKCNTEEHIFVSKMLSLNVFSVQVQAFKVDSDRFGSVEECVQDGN
The experiment in a line: flow cytometry, transfected 293-F cells.

Experiment [10] concerns the target T6, LAMP1_mL1_hL234_ΔGYQTI (mouse; human).
T6 construct: on cells; also called pXL5668
T6 chain: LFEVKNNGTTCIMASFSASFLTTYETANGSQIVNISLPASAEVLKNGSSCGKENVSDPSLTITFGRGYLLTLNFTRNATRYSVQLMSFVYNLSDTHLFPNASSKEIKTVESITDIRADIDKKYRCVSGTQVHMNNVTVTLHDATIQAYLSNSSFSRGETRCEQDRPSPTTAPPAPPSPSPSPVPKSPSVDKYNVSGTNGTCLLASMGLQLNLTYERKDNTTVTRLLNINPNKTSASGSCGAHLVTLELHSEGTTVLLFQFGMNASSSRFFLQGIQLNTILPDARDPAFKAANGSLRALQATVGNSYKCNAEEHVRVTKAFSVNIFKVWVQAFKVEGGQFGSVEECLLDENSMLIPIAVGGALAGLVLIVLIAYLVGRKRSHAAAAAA
The experiment in a line: flow cytometry, transfected 293-F cells.

Bounds are passed on as bounds.

T1 sequence (P13473 other isoform, or with tags, fused parts or gaps): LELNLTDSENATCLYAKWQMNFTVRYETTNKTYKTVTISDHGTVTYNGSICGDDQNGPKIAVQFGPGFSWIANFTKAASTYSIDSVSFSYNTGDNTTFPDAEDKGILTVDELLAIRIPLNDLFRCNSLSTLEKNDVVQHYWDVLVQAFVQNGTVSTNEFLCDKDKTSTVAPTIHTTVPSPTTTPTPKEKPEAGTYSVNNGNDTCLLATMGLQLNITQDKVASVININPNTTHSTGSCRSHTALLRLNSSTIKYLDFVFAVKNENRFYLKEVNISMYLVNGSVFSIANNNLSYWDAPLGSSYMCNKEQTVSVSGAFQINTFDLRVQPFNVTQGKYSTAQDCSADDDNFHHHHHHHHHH

B1: MAb4 (antibody, mouse IgG1, V domains shown)
VH: QVQLQQSGAELVRPGTSVKVSCKASGYAFTNYLIEWVKQRPGQGLEWIGVINPGSGGTNYNEKFKGKATLTADKSSSTAYMQLSSLTSDDSAVYFCARYRSYDWYFDVWGAGTTVTVSS
VL: DIQMTQSPASLSASVGETVTITCRVSGNIHNYLAWYQQKQGKSPQLLVYNAKTLADGVPSRFSGSGSGTQYSLKINSLQPEDFGSYYCQHFWSNPYTFGGGTKLEIK
notes: also called antibody from hybridoma 88LAMP1-2
B1: the binding result in experiment [1] is given as “no binding (tested: 10 µg/mL)”. Besides, the “fold difference of EC50 (LAMP1 versus LAMP2)” value in experiment [2] is above 100 fold. For the same molecule, the EC50 in experiment [3] was 1300 pM; in [4], 220 pM; in [5], 390 pM; in experiment [6] it was 200 to 400 pM; in experiment [7] it was 200 to 400 pM.

B2: chMAb2 (antibody, human IgG1, kappa)
heavy: not shown
light: NIVLTQSPVSLAVSLGQRATISCRASESVDINGNTFMHWYQQKPGQSPKLVIYAASNIESGVPARFSGSGSSTDFTFTIDPVEADDVATYYCQQNIEDPWTFGGGTKVEIKRTVAAPSVFIFPPSDEQLKSGTASVVCLLNNFYPREAKVQWKVDNALQSGNSQESVTEQDSKDSTYSLSSTLTLSKADYEKHKVYACEVTHQGLSSPVTKSFNRGEC
notes: chimeric, human IgG1, Ckappa
Consider B2, for which, in [8], the “ADCC EC50, NK batch 6712562616” value was determined as 2000 pM; the “ADCC EC50, NK batch 67125626389” value came out at 100 pM; the “ADCC EC50, NK batch 67125903091” value is 500 pM. Besides, the binding result in experiment [9] is reported as “no binding”. Further, the binding result in [10] was “no binding”.

For the origin of these results see patent publication US20180142032A1 (Sanofi, published 2018).
